Here are results for 1 molecule from patent publication US20130078234A1 (Daiichi Sankyo, published 2013).

Positions count from the first letter of the chain named.

Assay [1] addresses B7-H1 (B7 family protein, on transfected 293T cells) (Homo sapiens (Human), UniProt Q9NZQ7 19-290). Kind of assay: flow cytometry on transfected 293T cells.
Assay [2] concerns the target T1, CD86 (B7 family protein, on transfected 293T cells) (Homo sapiens (Human), UniProt P42081 24-329).
T1 sequence: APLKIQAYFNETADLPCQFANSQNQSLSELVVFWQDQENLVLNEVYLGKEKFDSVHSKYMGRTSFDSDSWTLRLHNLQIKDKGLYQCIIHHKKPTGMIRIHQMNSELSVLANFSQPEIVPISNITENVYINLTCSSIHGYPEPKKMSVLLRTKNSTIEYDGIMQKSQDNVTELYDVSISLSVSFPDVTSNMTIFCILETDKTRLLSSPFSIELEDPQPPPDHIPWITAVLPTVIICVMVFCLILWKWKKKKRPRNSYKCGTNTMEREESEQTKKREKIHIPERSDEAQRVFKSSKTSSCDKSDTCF
Nature of the assay: flow cytometry on transfected 293T cells.

Assay [3] concerns the target T2, CD80 (B7 family protein, on transfected 293T cells) (Homo sapiens (Human), UniProt P33681 35-288).
T2 sequence: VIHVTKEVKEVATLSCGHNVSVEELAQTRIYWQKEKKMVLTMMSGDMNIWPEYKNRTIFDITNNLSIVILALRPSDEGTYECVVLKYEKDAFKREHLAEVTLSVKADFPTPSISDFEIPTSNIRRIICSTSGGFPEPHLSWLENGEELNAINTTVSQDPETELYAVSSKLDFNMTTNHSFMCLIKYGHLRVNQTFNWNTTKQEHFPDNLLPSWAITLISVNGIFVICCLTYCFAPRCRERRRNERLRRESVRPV
Nature of the assay: flow cytometry on transfected 293T cells. (A flow cytometer gives signals particle by particle.)

For assay [4], the target named is T3, B7RP-1 (B7 family protein, on transfected 293T cells) (Homo sapiens (Human), UniProt O75144 19-302).
T3 sequence: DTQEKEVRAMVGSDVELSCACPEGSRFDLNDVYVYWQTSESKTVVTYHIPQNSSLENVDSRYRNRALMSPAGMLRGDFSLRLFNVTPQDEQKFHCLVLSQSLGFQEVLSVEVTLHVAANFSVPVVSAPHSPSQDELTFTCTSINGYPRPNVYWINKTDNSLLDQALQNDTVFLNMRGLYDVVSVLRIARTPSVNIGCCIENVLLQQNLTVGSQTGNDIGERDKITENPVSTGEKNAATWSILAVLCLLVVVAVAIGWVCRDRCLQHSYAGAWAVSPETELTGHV
Nature of the assay: flow cytometry on transfected 293T cells.

The target in assay [5] is T4, B7-H4 (B7 family protein, on transfected 293T cells) (Homo sapiens (Human), UniProt Q7Z7D3 25-282).
T4 sequence: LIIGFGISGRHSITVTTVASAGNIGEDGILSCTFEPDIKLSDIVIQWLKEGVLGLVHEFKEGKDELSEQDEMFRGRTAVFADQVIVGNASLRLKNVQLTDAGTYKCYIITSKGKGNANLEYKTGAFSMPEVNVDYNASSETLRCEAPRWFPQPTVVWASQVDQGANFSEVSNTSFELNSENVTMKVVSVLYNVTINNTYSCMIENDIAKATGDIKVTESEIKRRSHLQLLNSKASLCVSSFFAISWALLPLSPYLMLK
Kind of assay: flow cytometry on transfected 293T cells.

Assay [6] has as its target T5, B7-H3 IgV2 (B7-H3 partial protein, on transfected NIH-3T3 cells) (human, UniProt Q5ZPR3 245-534).
T5 construct: expressed on cells from pFLAG-myc-CMV-19-DEST; leader or tag from the vector not described
T5 sequence: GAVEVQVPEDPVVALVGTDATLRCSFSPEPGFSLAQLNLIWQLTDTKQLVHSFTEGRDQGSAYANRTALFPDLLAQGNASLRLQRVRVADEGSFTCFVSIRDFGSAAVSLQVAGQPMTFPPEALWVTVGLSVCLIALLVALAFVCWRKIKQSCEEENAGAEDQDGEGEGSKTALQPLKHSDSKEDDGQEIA
Nature of the assay: flow cytometry on NIH-3T3 cells transfected with the B7-H3 IgV2 expression vector; fluorescein anti-mouse IgG secondary; FL1 Log histogram. The protocol:
(§1) The binding specificity, for B7-H3, of the antibody produced by the hybridoma which immunoprecipitated the B7-H3 variant 1 identified by MS was confirmed by a flow cytometric method. The cell suspension prepared in Example 3)-2 was centrifuged, and the supernatant was removed. Then, the hybridoma culture supernatant was added to the NIH-3T3 cells transfected with each vector to suspend the cells, and the cells were left to stand at 4° C. for 1 hour.
(§2) It was examined as to which domain of B7-H3 the M30 binds by a flow cytometric method in the same manner as in Example 3)-3. The NIH-3T3 cells transfected with each of the expression vectors for B7-H3 partial proteins prepared in Example 1)-1-3 were used.

Assay [7] addresses T6, B7-H3 IgV1 (B7-H3 partial protein, on transfected NIH-3T3 cells) (human, UniProt Q5ZPR3 27-534).
T6 construct: expressed on cells from pFLAG-myc-CMV-19-DEST; leader or tag from the vector not described
T6 sequence: T5 sequence with V3L, R23C, T54A, R57Q
Nature of the assay: flow cytometry on NIH-3T3 cells transfected with the B7-H3 IgV1 expression vector; fluorescein anti-mouse IgG secondary; FL1 Log histogram. The protocol:
as §1, §2

For assay [8], the target named is T7, extracellular domain polypeptide of a recombinant B7-H3 variant 2 antigen (R&D Systems, Inc., #2318-B3-050/CF) (human, UniProt Q5ZPR3 29-466).
T7 construct: Bought recombinant protein; also called recombinant B7-H3 antigen; B7-H3 antigen
T7 sequence: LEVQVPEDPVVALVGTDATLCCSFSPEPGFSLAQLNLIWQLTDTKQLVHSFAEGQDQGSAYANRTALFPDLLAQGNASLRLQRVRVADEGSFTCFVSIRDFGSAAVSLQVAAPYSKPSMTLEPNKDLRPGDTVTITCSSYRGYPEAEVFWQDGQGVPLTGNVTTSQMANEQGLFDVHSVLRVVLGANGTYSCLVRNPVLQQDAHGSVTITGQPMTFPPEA
Kind of assay: competition ELISA on plate-coated B7-H3 variant 2 extracellular domain polypeptide; competitor biotinylated M30 (bM30, 5 ug/ml), detected with streptavidin-HRP, OD 450 nm. The protocol: Each of the extracellular domain polypeptide of the B7-H3 variant 1 (manufactured by R&D Systems, Inc., #1949-B3-050/CF) and the extracellular domain polypeptide of the B7-H3 variant (manufactured by R&D Systems, Inc., #2318-B3-050/CF) was diluted to 0.5 μg/ml with a coating buffer and the resulting solution was dispensed at 100 μL/well in an immunoplate (manufactured by Nunc, Inc., #442404). Then, the plate was left to stand overnight at 4° C., whereby the protein was adsorbed to the plate. On the next day, an assay diluent was dispensed at 200 μL/well, and the plate was left to stand at room temperature for 4 hours.
In general terms: An ELISA detects its analyte on a solid surface through an enzyme-linked reagent.

In assay [9] the target is T7, extracellular domain polypeptide of a …. Kind of assay: SPR, antibody captured on immobilized anti-mouse IgG, B7-H3 variant 2 extracellular domain as analyte; M30 mouse antibody, captured on anti-mouse IgG. The protocol: The affinity between the M30 antibody or the cM30 antibody and the B7-H3 antigen was measured by a surface plasmon resonance (SPR) device (GE Healthcare Corporation). According to a common procedure, an anti-mouse IgG or an anti-human IgG antibody was immobilized on a sensor chip, and then, the M30 antibody sample or the cM30 antibody was bound thereto. Thereafter, an extracellular domain polypeptide of a recombinant B7-H3 variant 2 antigen (manufactured by R&D Systems, Inc., #2318-B3-050/CF) was added thereto at different concentrations, and the amount of the antigen bound to the antibody in a running buffer (phosphate buffer, 0.05% SP20) was measured over time. The measured amount was analyzed with a dedicated software (BIAevaluation Version 4.1, GE Healthcare Corporation) and a dissociation constant was calculated.
On the technique in general: Surface plasmon resonance follows binding to a sensor surface in real time, without labels.

For orientation: Kd means the equilibrium constant for the complex coming apart.

B7-H1 (B7 family protein, on transfected 293T cells), sequence (Q9NZQ7 19-290 limits assumed): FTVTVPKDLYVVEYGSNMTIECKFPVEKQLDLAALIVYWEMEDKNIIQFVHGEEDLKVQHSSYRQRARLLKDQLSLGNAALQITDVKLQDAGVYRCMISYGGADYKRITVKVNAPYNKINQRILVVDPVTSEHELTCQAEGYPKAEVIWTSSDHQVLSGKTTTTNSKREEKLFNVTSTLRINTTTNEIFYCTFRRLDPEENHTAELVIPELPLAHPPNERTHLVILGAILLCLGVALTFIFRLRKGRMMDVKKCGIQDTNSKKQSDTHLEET

B1: M30 antibody (mouse anti-human B7-H3 monoclonal antibody produced by B7-H3 hybridoma M30) (antibody, mouse IgG2a, kappa)
heavy: EVQLQQSGPELVKPGASVKMSCKASGYTFTNYVMHWVKQKPGQGLEWIGYINPYNDDVKYNEKFKGKATQTSDKSSSTAYMELSSLTSEDSAVYYCARWGYYGSPLYYFDYWGQGTTLTVSSAKTTAPSVYPLAPVCGDTTGSSVTLGCLVKGYFPEPVTLTWNSGSLSSGVHTFPAVLQSDLYTLSSSVTVTSSTWPSQSITCNVAHPASSTKVDKKIEPRGPTIKPCPPCKCPAPNLLGGPSVFIFPPKIKDVLMISLSPIVTCVVVDVSEDDPDVQISWFVNNVEVHTAQTQTHREDYNSTLRVVSALPIQHQDWMSGKEFKCKVNNKDLPAPIERTISKPKGSVRAPQVYVLPPPEEEMTKKQVTLTCMVTDFMPEDIYVEWTNNGKTELNYKNTEPVLDSDGSYFMYSKLRVEKKNWVERNSYSCSVVHEGLHNHHTTKSFSRTPGK
light: QIVLSQSPTILSASPGEKVTMTCRASSRLIYMHWYQQKPGSSPKPWIYATSNLASGVPARFSGSGSGTSYSLTISRVEAEDAATYYCQQWNSNPPTFGTGTKLELKRADAAPTVSIFPPSSEQLTSGGASVVCFLNNFYPKDINVKWKIDGSERQNGVLNSWTDQDSKDSTYSMSSTLTLTKDEYERHNSYTCEATHKTSTSPIVKSFNRNEC
notes: Mouse IgG2a, kappa; Used as hybridoma culture supernatant in the flow cytometry and as purified antibody in SPR and ELISA; also called mouse antibody M30
As for B1, the binding result in [1], in [2], in assay [3], in [4], in assay [5] and in [6] was “no binding” throughout. Also, the binding result in [7] was “no binding”. The “IC50 (read off the curve)” value in assay [8] is about 0.5 µg/mL. In assay [9], the equilibrium dissociation constant (Kd) came out at 5.89 nM.
